Data on three molecules can be found in US20030148312A1, “Method for testing for allergic disease” (NATIONAL CENTER FOR CHILD HEALTH AND DEVELOPMENT, priority 2001, published 2003).

Test [1] concerns MAL. Nature of the test: Expression induction experiment with cytokines in cultured T cells derived from peripheral blood (MAL mRNA). Conditions: 0-48 h, IL-4 2 ng/ml, IL-12 2 ng/ml, IFN-γ 200 ng/ml, IFN-α 100 IU/ml. Type of test: cell-based, human. Here is the method:
Effects of various cytokines on the MAL expression level were examined. T cells were separated from the peripheral blood sample from an normal healthy subject using the method described in Example 6, and stimulated with the anti-CD3 antibody to induce the cell growth. That is, on a culture plate which was surface-treated with the anti-CD3 antibody, the separated T cells were cultured in a 5% FCS-containing RPMI1640 medium (1 mM sodium pyruvate, 2 mM L-glutamine, 10 U/ml penicillin, 100 μg/ml streptomycin, and 200 U/ml IL-2) at a density of 5×10^5 cells/ml for 5 days. Grown T cells were diluted with the same medium to a density of 5×10^5 cells/ml, and cultured on a non-surface treated plate for further 3 days. The resulting cells were washed with the medium without IL-2, suspended in the medium (without IL-2) supplemented with cytokine for the stimulation at a density of 1×10^6 cells/ml, and cultured under the stimulation for a predetermined period of time. Cells were then collected to prepare RNA. Cytokines used are shown below:
The same medium as that described in Example 3 was used. During the cultivation for 0˜48 h, mRNA for MAL was induced in the case of stimulation with IL-4. […] Induction of MAL expression with IL-4 may indicate the association of MAL with the action of IL-4 in allergic diseases. For example, MAL may act during the differentiation process of T cell into Th2, and also may associate with the production of Th2 cytokines, IL-4, IL-5, and IL-10.

Test [2] has as its system MAL protein. Nature of the test: Induction of MAL protein expression in human peripheral blood T-cells (Western blotting of raft fraction). Format: cell-based. As to conditions: IL-4 2 ng/ml, 41 hours, fraction 4. As to the method:
Human peripheral blood cells that had been cultured and propagated were similarly stimulated as in Example 7 with IL-4 (2 ng/ml) for 41 hours, and then the MAL protein expression in the raft fraction (fraction 4) was examined by Western blotting. As a result, the induction of the MAL protein expression by IL-4 was confirmed also in the raft of human peripheral blood T-cells (FIG. 8).

In test [3] the test system is MAL protein. Nature of the test: Induction of MAL protein expression in Jurkat cell line (Western blotting of raft fraction). Type of test: cell-based, human. As to conditions: Jurkat cells, IL-4 2 ng/ml, 32 hours, raft fractions 4, 5, 6. Here is the method: Cell lysate was prepared from Jurkat cells that had been stimulated with IL-4 (2 ng/ml) for 32 hours, and subjected to sucrose density gradient centrifugation according to the method of Fernando Martin-Belmonte et al. (Fernando Martin-Belmonte, Rosa Puertollano, Jaime Millan, and Miguel A. Alonso. The MAL Proteolipid Is Necessary for the Overall Apical Delivery of Membrane Protein in the Polarized Epithelial Madin-Darby Canine Kidney and Fischer Rat Thyroid Cell Lines. Molecular Biology of the Cell 11, 2033-2045, June 2000) to separate the raft fraction (fractions 4, 5, and 6). Proteins in each fraction were separated by SDS polyacrylamide gel electrophoresis, and analyzed by Western blotting using antibody against MAL peptide or that against LAT (linker for activation of T cells).
In general terms: In western blotting, separated proteins are transferred to a membrane and probed.

On to IFN-α, for which the “induction of mRNA for MAL” value in test [1] is “No such action was observed”.

B1: IL-4: cytokine used for stimulation of T cells (protein, UniProt P05112 25-153, looked up)
Interleukin-4: HKCDITLQEIIKTLNSLTEQKTLCTELTVTDIFAASKNTTEKETFCRAATVLRQFYSHHEKDTRCLGATAQQFHRHKQLIRFLKRLDRNLWGLAGLNSCPVKEANQSTLENFLERLKTIMREKYSKCSS
B1: the “induction of mRNA for MAL” value in test [1] is on record as “induced”. In test [2], the “MAL protein expression in the raft fraction” value is given as “induction”. Moreover, the “expression of MAL protein in the raft” value in test [3] is “increased”.

B2: IFN-γ: cytokine used for stimulation of T cells (protein, UniProt P01579 24-161, looked up)
Interferon gamma: QDPYVKEAENLKKYFNAGHSDVADNGTLFLGILKNWKEESDRKIMQSQIVSFYFKLFKNFKDDQSIQKSVETIKEDMNVKFFNSNKKKRDDFEKLTNYSVTDLNVQRKAIHELIQVMAELSPAAKTGKRKRSQMLFRG
Regarding B2, in test [1], the “induction of mRNA for MAL” value was “No such action was observed”.
